Starred links: 1 amine or outer side, 2 acyl side, 3 side chain; linkers in the order of their positions; H or OH if unused. Positions of bridges follow the written chain, without caps; N, C: chain ends. Non-standard residues stand in square brackets, D forms with d. No end group written: not given here. X3 = 4‑(2-(4-(2-amino-2-carboxyethyl)phenoxy)ethyl)‑4‑methylmorpholin‑4‑ium, C[N+]1(CCOc2ccc(CC(N[*:1])C(=O)[*:2])cc2)CCOCC1; X6 = 2‑amino‑3‑(4-carbamoyl-1H-imidazol-1-yl)propanoic acid, NC(=O)c1cn(CC(N[*:1])C(=O)[*:2])cn1; 2Nal(6-OH) = N[C@@H](Cc1ccc2cc(O)ccc2c1)C(=O)O; Trp(7-Me) = Cc1cccc2c(C[C@H](N)C(=O)O)c[nH]c12; AEF = NCCOc1ccc(C[C@H](N)C(=O)O)cc1; 3Pal = N[C@@H](Cc1cccnc1)C(=O)O; Pen = CC(C)(S)[C@H](N)C(=O)O; lipid = not defined here; Thp = NC1(C(=O)O)CCOCC1; Sar = CNCC(=O)O

For 20 molecules, PBMC pSTAT3 IC50 and IL23R Reporter Assay IC50 results are on record in patent US20240279281A1, “Peptide Inhibitors of Interleukin-23 Receptor” (Janssen Pharmaceutica NV, priority 2023, published 2024).

This assay addresses T1, interleukin-23 receptor (IL-23R), Q5VWK5.
T1 chain: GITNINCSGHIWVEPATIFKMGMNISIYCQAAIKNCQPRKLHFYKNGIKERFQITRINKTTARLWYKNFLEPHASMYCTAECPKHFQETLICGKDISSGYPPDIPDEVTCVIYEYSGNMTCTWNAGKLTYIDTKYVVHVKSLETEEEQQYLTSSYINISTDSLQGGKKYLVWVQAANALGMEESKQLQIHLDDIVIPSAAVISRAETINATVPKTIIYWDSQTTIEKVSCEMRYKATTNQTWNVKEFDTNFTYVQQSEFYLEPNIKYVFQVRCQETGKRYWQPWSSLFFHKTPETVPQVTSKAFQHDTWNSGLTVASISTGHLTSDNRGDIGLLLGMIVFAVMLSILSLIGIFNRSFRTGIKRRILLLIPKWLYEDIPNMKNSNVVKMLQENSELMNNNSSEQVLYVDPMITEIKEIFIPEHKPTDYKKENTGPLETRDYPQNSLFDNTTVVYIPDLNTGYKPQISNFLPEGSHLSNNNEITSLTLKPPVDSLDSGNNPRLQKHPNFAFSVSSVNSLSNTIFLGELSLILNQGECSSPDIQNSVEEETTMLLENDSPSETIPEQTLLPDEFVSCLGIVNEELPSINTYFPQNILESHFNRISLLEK
Nature of the assay: cell-based or functional assay.

B1: SEQ ID NO: 277 (peptide)
peptide: [Pen]NT[Trp(7-Me)]K(Ac)[Pen][2‑amino‑3‑(4-(2-aminoethoxy)phenyl)propanoic acid][2‑amino‑3‑(6-hydroxynaphthalen-2-yl)propanoic acid][Thp]K(Ac)N[3Pal][Sar]K(lipid)
modifications: disulfide 1-6 (inferred); ends not checked; also: K14: lipidated lysine
Consider B1, for which the PBMC pSTAT3 IC50 is under 1 nM.

B2: SEQ ID NO: 423 (peptide)
peptide: K[Pen]ET[Trp(7-Me)]K(Ac)[Pen][AEF][2Nal(6-OH)][Thp]K(Ac)N[3Pal][Sar]
modifications: not fully specified (bridges); ends and bridges not checked; also: lipidated Lys1, lipid not given here
Molecule B2 returned a PBMC pSTAT3 IC50 of under 1 nM.

B3: SEQ ID NO: 427 (peptide)
peptide: K[Pen]NT[Trp(7-Me)]K(Ac)[Pen][2‑amino‑3‑(4-(2-aminoethoxy)phenyl)propanoic acid][2‑amino‑3‑(6-hydroxynaphthalen-2-yl)propanoic acid][Thp]K(Ac)N[3Pal][Sar]
modifications: not fully specified (residue 1, bridges); ends and bridges not checked; also: Lys1 lipidated (lipid not given here)
Consider B3, for which the PBMC pSTAT3 IC50 was under 1 nM.

B4: SEQ ID NO: 271 (peptide)
peptide: [Pen]NT[Trp(7-Me)]K(Ac)[Pen][2‑amino‑3‑(4-(2-aminoethoxy)phenyl)propanoic acid][2‑amino‑3‑(6-hydroxynaphthalen-2-yl)propanoic acid][Thp]K(Ac)N[3Pal][Sar]K(lipid)
modifications: disulfide 1-6 (inferred); ends not checked; also: K14: lipidated lysine
B4 registered a PBMC pSTAT3 IC50 of under 1 nM.

B5: SEQ ID NO: 267 (peptide)
peptide: [Pen]NT[Trp(7-Me)]K(Ac)[Pen][2‑amino‑3‑(4-(2-aminoethoxy)phenyl)propanoic acid][2‑amino‑3‑(6-hydroxynaphthalen-2-yl)propanoic acid][Thp]K(Ac)N[3Pal][Sar]K
modifications: disulfide 1-6 (inferred); not fully specified (residue 14); ends not checked; also: K14: lipidated lysine
B5 displayed a PBMC pSTAT3 IC50 of under 1 nM.

B6: SEQ ID NO: 425 (peptide)
peptide: R[Pen]KT[Trp(7-Me)]K(Ac)[Pen][AEF][2Nal(6-OH)][Thp]EN[3Pal][Sar]
modifications: not fully specified (residue 3, bridges); ends and bridges not checked; also: K3: lipidated lysine
As to B6, the PBMC pSTAT3 IC50 is under 1 nM.

B7: SEQ ID NO: 269 (peptide)
peptide: R[Pen]NT[Trp(7-Me)]K(Ac)[Pen][2‑amino‑3‑(4-(2-aminoethoxy)phenyl)propanoic acid][2‑amino‑3‑(6-hydroxynaphthalen-2-yl)propanoic acid][Thp]EN[3Pal][Sar]K
modifications: disulfide 2-7 (inferred); not fully specified (residue 15); ends not checked; also: K15: lipidated lysine
Molecule B7 returned a PBMC pSTAT3 IC50 of under 1 nM.

B8: SEQ ID NO: 433 (peptide)
peptide: R[Pen]NT[Trp(7-Me)]K(Ac)[Pen][2‑amino‑3‑(4-(2-aminoethoxy)phenyl)propanoic acid][3‑(6-(1H-pyrazol-4-yl)naphthalen-2-yl)‑2‑aminopropanoic acid][Thp]EN[Thp]
modifications: not fully specified (bridges); ends and bridges not checked
For the molecule B8, the PBMC pSTAT3 IC50 was over 1 nM.

B9: SEQ ID NO: 395 (peptide)
peptide: K[Pen]ET[Trp(7-Me)]K(Ac)[Pen][2‑amino‑3‑(4-(2-aminoethoxy)phenyl)propanoic acid][2‑amino‑3‑(6-hydroxynaphthalen-2-yl)propanoic acid][Thp]EN[3Pal][Sar]
modifications: not fully specified (residue 1, bridges); ends and bridges not checked; also: Lys1: lipidated lysine, lipid not given here
Molecule B9 yielded a PBMC pSTAT3 IC50 of under 1 nM.

B10: SEQ ID NO: 266 (peptide)
peptide: [(R)‑3‑carboxy‑2‑(4-(((R)-5-carboxy-5-hydrazineylpentyl)amino)-4-oxobutanamido)‑N,N,N‑trimethylpropan‑1‑aminium][Pen]NT[Trp(7-Me)]K(Ac)[Pen][2‑amino‑3‑(4-(2-aminoethoxy)phenyl)propanoic acid][2‑amino‑3‑(6-hydroxynaphthalen-2-yl)propanoic acid][Thp]EN[3Pal][Sar]
modifications: disulfide 2-7 (inferred); ends not checked
The molecule B10 gave a PBMC pSTAT3 IC50 of under 0.1 nM.

B11: SEQ ID NO: 420 (peptide)
peptide: R[Pen]ET[Trp(7-Me)]K(Ac)[Pen][AEF][2Nal(6-OH)][Thp]KN[3Pal][Sar]
modifications: not fully specified (bridges); ends and bridges not checked; also: K11: lipidated lysine
With B11, the PBMC pSTAT3 IC50 was under 0.1 nM.

B12: SEQ ID NO: 80 (peptide)
peptide: [Pen]NT[Trp(7-Me)]K(Ac)[Pen][2‑amino‑3‑(4-(2-aminoethoxy)phenyl)propanoic acid][2‑amino‑3‑(6-hydroxynaphthalen-2-yl)propanoic acid][Thp]KN[3Pal][Sar]
modifications: not fully specified (bridges); ends and bridges not checked; also: K10: lipidated lysine, lipid not given here
With B12, the IL23R Reporter Assay IC50 was under 10 nM.

B13: SEQ ID NO: 75 (peptide)
peptide: [Pen]NT[Trp(7-Me)]K(Ac)[Pen][5‑(4-(2-amino-2-carboxyethyl)phenoxy)‑N,N,N‑trimethylpentan‑1‑aminium][2Nal(6-OH)][Thp]EN[3Pal][Sar]
modifications: not fully specified (bridges); ends and bridges not checked
B13: the IL23R Reporter Assay IC50 is under 10 nM.

B14: SEQ ID NO: 73 (peptide)
peptide: R[Pen]NTWK(Ac)[Pen][X3][2Nal(6-OH)][Thp]EN[3Pal][Sar]
modifications: not fully specified (bridges); ends and bridges not checked
Regarding B14, the IL23R Reporter Assay IC50 was under 10 nM.

B15: SEQ ID NO: 81 (peptide)
peptide: [Pen]NT[Trp(7-Me)]K[Pen][2‑amino‑3‑(4-(2-aminoethoxy)phenyl)propanoic acid][2‑amino‑3‑(6-hydroxynaphthalen-2-yl)propanoic acid][Thp]K(Ac)N[3Pal][Sar]
modifications: not fully specified (bridges); ends and bridges not checked; also: K5: lipidated lysine, lipid not given here
B15 had an IL23R Reporter Assay IC50 of under 10 nM.

B16: SEQ ID NO: 419 (peptide)
peptide: R[Pen]NT[Trp(7-Me)]K(Ac)[Pen][AEF][2Nal(6-OH)][Thp]EN[X6][Sar]
modifications: not fully specified (bridges); ends and bridges not checked
Consider B16, for which the PBMC pSTAT3 IC50 is under 0.1 nM.

B17: SEQ ID NO: 421 (peptide)
peptide: R[Pen]ET[Trp(7-Me)]K(Ac)[Pen][AEF][2Nal(6-OH)][Thp]K(Ac)N[3Pal][Sar]
modifications: not fully specified (bridges); ends and bridges not checked
Molecule B17 showed a PBMC pSTAT3 IC50 of under 1 nM.

B18: SEQ ID NO: 268 (peptide)
peptide: K[Pen]NT[Trp(7-Me)]K(Ac)[Pen][2‑amino‑3‑(4-(2-aminoethoxy)phenyl)propanoic acid][2‑amino‑3‑(6-hydroxynaphthalen-2-yl)propanoic acid][Thp]EN[3Pal][Sar]
modifications: disulfide 2-7 (inferred); not fully specified (residue 1); ends not checked; also: K1: lipidated lysine
As to B18, the PBMC pSTAT3 IC50 is under 1 nM.

B19: SEQ ID NO: 265 (peptide)
peptide: [(R)‑3‑carboxy‑2‑(4-(((R)-5-carboxy-5-hydrazineylpentyl)amino)-4-oxobutanamido)‑N,N,N‑trimethylpropan‑1‑aminium][Pen]NT[Trp(7-Me)]K(Ac)[Pen][2‑amino‑3‑(4-(2-aminoethoxy)phenyl)propanoic acid][2‑amino‑3‑(6-hydroxynaphthalen-2-yl)propanoic acid][Thp]EN[3Pal][Sar]
modifications: disulfide 2-7 (inferred); ends not checked
B19 had a PBMC pSTAT3 IC50 of under 1 nM.

B20: SEQ ID NO: 72 (peptide)
peptide: [Pen]NT[Trp(7-Me)]K(Ac)[Pen][AEF][2Nal(6-OH)][Thp]K(Ac)N[3Pal][Sar]K
modifications: not fully specified (bridges); ends and bridges not checked; also: K14: lipidated lysine, lipid not given here
As for B20, the IL23R Reporter Assay IC50 is under 10 nM.
